Test results from patent US20160272693A1 (ZEALAND PHARMA A S, published 2016).
*1 amine or outer side, *2 acyl side, *3 side chain or, on linkers, in order; H or OH if unused. Bridges are numbered along the chain shown (N, C = ends). [ ]: non-standard residue; d: D form. The star is where a group is joined. C20 diacid = O=C(O)CCCCCCCCCCCCCCCCCCC(=O)*; γGlu = O=C(O)[C@H](CCC(=O)[*:2])N[*:1]; Hyp = O=C(O)[C@@H]1C[C@@H](O)CN1; NMeI = CC[C@H](C)[C@H](NC)C(=O)O; Aad = N[C@@H](CCCC(=O)O)C(=O)O; Sar = CNCC(=O)O

T1: human amylin receptor 3 (hAMYR3), hCTR2 co-expressed with human receptor activity modifying protein 3 (hRAMP3) (human, UniProt P30988 25-474; O60896 24-148)
T1 sequence (looked up) 1: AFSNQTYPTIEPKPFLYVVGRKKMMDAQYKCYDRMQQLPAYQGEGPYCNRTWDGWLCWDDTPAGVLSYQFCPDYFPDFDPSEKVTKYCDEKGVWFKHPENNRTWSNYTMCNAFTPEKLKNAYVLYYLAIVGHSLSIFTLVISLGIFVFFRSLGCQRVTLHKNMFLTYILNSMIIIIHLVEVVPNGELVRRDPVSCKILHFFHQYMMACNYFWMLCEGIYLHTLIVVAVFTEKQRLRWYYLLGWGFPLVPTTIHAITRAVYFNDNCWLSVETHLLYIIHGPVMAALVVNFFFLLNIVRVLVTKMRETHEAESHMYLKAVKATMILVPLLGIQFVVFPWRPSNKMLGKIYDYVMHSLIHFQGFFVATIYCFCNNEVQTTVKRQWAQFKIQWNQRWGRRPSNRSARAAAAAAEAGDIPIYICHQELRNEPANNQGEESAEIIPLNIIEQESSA
T1 sequence (looked up) 2: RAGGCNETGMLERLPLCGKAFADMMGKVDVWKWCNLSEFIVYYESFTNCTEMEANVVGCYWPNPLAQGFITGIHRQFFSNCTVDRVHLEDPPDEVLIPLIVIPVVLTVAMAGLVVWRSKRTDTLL


Biological target: T1, human amylin receptor 3 (hAMYR3), hCTR2 …
Experiment: cell-based or functional assay

Row | Binder | hAMYR3 EC50 (nM); cAMP induction [nM]
1 | {C20 diacid}-[γGlu]RCGTATCATERLAHFLQRSSF[Sar]A[NMeI]LSSTEVGSNTP-NH2 (disulfide 3-8; SMILES CC[C@H](C)[C@@H](C(=O)N[C@@H](CC(C)C)C(=O)N[C@@H](CO)C(=O)N[C@@H](CO)C(=O)N[C@H](C(=O)N[C@@H](CCC(=O)O)C(=O)N[C@H](C(=O)NCC(=O)N[C@@H](CO)C(=O)N[C@@H](CC(N)=O)C(=O)N[C@H](C(=O)N1CCC[C@H]1C(N)=O)[C@@H](C)O)C(C)C)[C@@H](C)O)N(C)C(=O)[C@H](C)NC(=O)CN(C)C(=O)[C@H](Cc1ccccc1)NC(=O)[C@H](CO)NC(=O)[C@H](CO)NC(=O)[C@H](CCCNC(=N)N)NC(=O)[C@H](CCC(N)=O)NC(=O)[C@H](CC(C)C)NC(=O)[C@H](Cc1ccccc1)NC(=O)[C@H](Cc1c[nH]cn1)NC(=O)[C@H](C)NC(=O)[C@H](CC(C)C)NC(=O)[C@H](CCCNC(=N)N)NC(=O)[C@H](CCC(=O)O)NC(=O)[C@@H](NC(=O)[C@H](C)NC(=O)[C@@H]1CSSC[C@H](NC(=O)[C@H](CCCNC(=N)N)NC(=O)CC[C@H](NC(=O)CCCCCCCCCCCCCCCCCCC(=O)O)C(=O)O)C(=O)NCC(=O)N[C@@H]([C@@H](C)O)C(=O)N[C@@H](C)C(=O)N[C@@H]([C@@H](C)O)C(=O)N1)[C@@H](C)O) [[19CD]-isoGlu-R-C( )-GTAT-C( )-ATERLAHFLQRSSF-Gly(Me)-A-Ile(Me)-LSSTEVGSNTP-NH2 (Compd. 78)] | 0.24
2 | {C20 diacid}-[γGlu]RCGTATCATERLAHFLQRF[Sar]A[NMeI]LSSTEVGSNT[Hyp]-NH2 (disulfide 3-8; SMILES CC[C@H](C)[C@@H](C(=O)N[C@@H](CC(C)C)C(=O)N[C@@H](CO)C(=O)N[C@@H](CO)C(=O)N[C@H](C(=O)N[C@@H](CCC(=O)O)C(=O)N[C@H](C(=O)NCC(=O)N[C@@H](CO)C(=O)N[C@@H](CC(N)=O)C(=O)N[C@H](C(=O)N1C[C@H](O)C[C@H]1C(N)=O)[C@@H](C)O)C(C)C)[C@@H](C)O)N(C)C(=O)[C@H](C)NC(=O)CN(C)C(=O)[C@H](Cc1ccccc1)NC(=O)[C@H](CCCNC(=N)N)NC(=O)[C@H](CCC(N)=O)NC(=O)[C@H](CC(C)C)NC(=O)[C@H](Cc1ccccc1)NC(=O)[C@H](Cc1c[nH]cn1)NC(=O)[C@H](C)NC(=O)[C@H](CC(C)C)NC(=O)[C@H](CCCNC(=N)N)NC(=O)[C@H](CCC(=O)O)NC(=O)[C@@H](NC(=O)[C@H](C)NC(=O)[C@@H]1CSSC[C@H](NC(=O)[C@H](CCCNC(=N)N)NC(=O)CC[C@H](NC(=O)CCCCCCCCCCCCCCCCCCC(=O)O)C(=O)O)C(=O)NCC(=O)N[C@@H]([C@@H](C)O)C(=O)N[C@@H](C)C(=O)N[C@@H]([C@@H](C)O)C(=O)N1)[C@@H](C)O) [[19CD]-isoGlu-R-C( )-GTAT-C( )-ATERLAHFLQRF-Gly(Me)-A-Ile(Me)-LSSTEVGSNT-Hyp-NH2 (Compd. 77)] | 0.42
3 | {C20 diacid}-[γGlu]RCGTATCATERLAHFLERSSF[Sar]A[NMeI]LSSTEVGSNT[Hyp]-NH2 (disulfide 3-8) [[19CD]-isoGlu-R-C( )-GTAT-C( )-ATERLAHFLERSSF-Gly(Me)-A-Ile(Me)-LSSTEVGSNT-Hyp-NH2 (Compd. 8)] | 0.36

The next lines start with the values.

Row | hAMYR3 EC50 (nM); cAMP induction [nM] | Binder
4 | 0.28 | {C20 diacid-γGlu}-RCNTATCATQRLADFLQRSSF[Sar]A[NMeI]LSSTEVGSGTP-NH2 (disulfide 2-7; SMILES CC[C@H](C)[C@@H](C(=O)N[C@@H](CC(C)C)C(=O)N[C@@H](CO)C(=O)N[C@@H](CO)C(=O)N[C@H](C(=O)N[C@@H](CCC(=O)O)C(=O)N[C@H](C(=O)NCC(=O)N[C@@H](CO)C(=O)NCC(=O)N[C@H](C(=O)N1CCC[C@H]1C(N)=O)[C@@H](C)O)C(C)C)[C@@H](C)O)N(C)C(=O)[C@H](C)NC(=O)CN(C)C(=O)[C@H](Cc1ccccc1)NC(=O)[C@H](CO)NC(=O)[C@H](CO)NC(=O)[C@H](CCCNC(=N)N)NC(=O)[C@H](CCC(N)=O)NC(=O)[C@H](CC(C)C)NC(=O)[C@H](Cc1ccccc1)NC(=O)[C@H](CC(=O)O)NC(=O)[C@H](C)NC(=O)[C@H](CC(C)C)NC(=O)[C@H](CCCNC(=N)N)NC(=O)[C@H](CCC(N)=O)NC(=O)[C@@H](NC(=O)[C@H](C)NC(=O)[C@@H]1CSSC[C@H](NC(=O)[C@H](CCCNC(=N)N)NC(=O)CC[C@H](NC(=O)CCCCCCCCCCCCCCCCCCC(=O)O)C(=O)O)C(=O)N[C@@H](CC(N)=O)C(=O)N[C@@H]([C@@H](C)O)C(=O)N[C@@H](C)C(=O)N[C@@H]([C@@H](C)O)C(=O)N1)[C@@H](C)O) [[19CD]-isoGlu-R-C( )-NTAT-C( )-ATQRLADFLQRSSF-Gly(Me)-A-Ile(Me)-LSSTEVGSGTP-NH2 (Compd. 80)]
5 | 0.49 | {C20 diacid}-[γGlu]RCPTATCATERLAHFLQRSSF[Sar]A[NMeI]LSSTEVGS[Aad]T[Hyp]-NH2 (disulfide 3-8; SMILES CC[C@H](C)[C@@H](C(=O)N[C@@H](CC(C)C)C(=O)N[C@@H](CO)C(=O)N[C@@H](CO)C(=O)N[C@H](C(=O)N[C@@H](CCC(=O)O)C(=O)N[C@H](C(=O)NCC(=O)N[C@@H](CO)C(=O)N[C@@H](CCCC(=O)O)C(=O)N[C@H](C(=O)N1C[C@H](O)C[C@H]1C(N)=O)[C@@H](C)O)C(C)C)[C@@H](C)O)N(C)C(=O)[C@H](C)NC(=O)CN(C)C(=O)[C@H](Cc1ccccc1)NC(=O)[C@H](CO)NC(=O)[C@H](CO)NC(=O)[C@H](CCCNC(=N)N)NC(=O)[C@H](CCC(N)=O)NC(=O)[C@H](CC(C)C)NC(=O)[C@H](Cc1ccccc1)NC(=O)[C@H](Cc1c[nH]cn1)NC(=O)[C@H](C)NC(=O)[C@H](CC(C)C)NC(=O)[C@H](CCCNC(=N)N)NC(=O)[C@H](CCC(=O)O)NC(=O)[C@@H](NC(=O)[C@H](C)NC(=O)[C@@H]1CSSC[C@H](NC(=O)[C@H](CCCNC(=N)N)NC(=O)CC[C@H](NC(=O)CCCCCCCCCCCCCCCCCCC(=O)O)C(=O)O)C(=O)N2CCC[C@H]2C(=O)N[C@@H]([C@@H](C)O)C(=O)N[C@@H](C)C(=O)N[C@@H]([C@@H](C)O)C(=O)N1)[C@@H](C)O) [[19CD]-isoGlu-R-C( )-PTAT-C( )-ATERLAHFLQRSSF-Gly(Me)-A-Ile(Me)-LSSTEVGS-Aad-T-Hyp-NH2 (Compd. 76)]
6 | 0.23 | {C20 diacid-γGlu}-RCNTATCATQRLAHFLQRF[Sar]A[NMeI]LSSTEVGSGT[Hyp]-NH2 (disulfide 2-7; SMILES CC[C@H](C)[C@@H](C(=O)N[C@@H](CC(C)C)C(=O)N[C@@H](CO)C(=O)N[C@@H](CO)C(=O)N[C@H](C(=O)N[C@@H](CCC(=O)O)C(=O)N[C@H](C(=O)NCC(=O)N[C@@H](CO)C(=O)NCC(=O)N[C@H](C(=O)N1C[C@H](O)C[C@H]1C(N)=O)[C@@H](C)O)C(C)C)[C@@H](C)O)N(C)C(=O)[C@H](C)NC(=O)CN(C)C(=O)[C@H](Cc1ccccc1)NC(=O)[C@H](CCCNC(=N)N)NC(=O)[C@H](CCC(N)=O)NC(=O)[C@H](CC(C)C)NC(=O)[C@H](Cc1ccccc1)NC(=O)[C@H](Cc1c[nH]cn1)NC(=O)[C@H](C)NC(=O)[C@H](CC(C)C)NC(=O)[C@H](CCCNC(=N)N)NC(=O)[C@H](CCC(N)=O)NC(=O)[C@@H](NC(=O)[C@H](C)NC(=O)[C@@H]1CSSC[C@H](NC(=O)[C@H](CCCNC(=N)N)NC(=O)CC[C@H](NC(=O)CCCCCCCCCCCCCCCCCCC(=O)O)C(=O)O)C(=O)N[C@@H](CC(N)=O)C(=O)N[C@@H]([C@@H](C)O)C(=O)N[C@@H](C)C(=O)N[C@@H]([C@@H](C)O)C(=O)N1)[C@@H](C)O) [[19CD]-isoGlu-R-C( )-NTAT-C( )-ATQRLAHFLQRF-Gly(Me)-A-Ile(Me)-LSSTEVGSGT-Hyp-NH2 (Compd. 79)]
